Laboratory results: patent publication US20120308570A1, “METHODS FOR TREATING DISEASES” (priority 2009, published 2012)
Changes are numbered by the printed parent chain.

Columns and labels:
[1] = biological target: T1, full-length iNOS protein (endogenous, from LPS/IFNγ-treated mouse bone marrow-derived macrophages) (mouse, UniProt P29477 1-1144); test: anti-Flag co-immunoprecipitation from mixed 293T and BMDM lysates, anti-iNOS Western blot
T1 construct: Not purified: present in macrophage lysates; Detected by Western blot with anti-iNOS antibody; also called NOS2; inducible nitric oxide synthase
T1 sequence: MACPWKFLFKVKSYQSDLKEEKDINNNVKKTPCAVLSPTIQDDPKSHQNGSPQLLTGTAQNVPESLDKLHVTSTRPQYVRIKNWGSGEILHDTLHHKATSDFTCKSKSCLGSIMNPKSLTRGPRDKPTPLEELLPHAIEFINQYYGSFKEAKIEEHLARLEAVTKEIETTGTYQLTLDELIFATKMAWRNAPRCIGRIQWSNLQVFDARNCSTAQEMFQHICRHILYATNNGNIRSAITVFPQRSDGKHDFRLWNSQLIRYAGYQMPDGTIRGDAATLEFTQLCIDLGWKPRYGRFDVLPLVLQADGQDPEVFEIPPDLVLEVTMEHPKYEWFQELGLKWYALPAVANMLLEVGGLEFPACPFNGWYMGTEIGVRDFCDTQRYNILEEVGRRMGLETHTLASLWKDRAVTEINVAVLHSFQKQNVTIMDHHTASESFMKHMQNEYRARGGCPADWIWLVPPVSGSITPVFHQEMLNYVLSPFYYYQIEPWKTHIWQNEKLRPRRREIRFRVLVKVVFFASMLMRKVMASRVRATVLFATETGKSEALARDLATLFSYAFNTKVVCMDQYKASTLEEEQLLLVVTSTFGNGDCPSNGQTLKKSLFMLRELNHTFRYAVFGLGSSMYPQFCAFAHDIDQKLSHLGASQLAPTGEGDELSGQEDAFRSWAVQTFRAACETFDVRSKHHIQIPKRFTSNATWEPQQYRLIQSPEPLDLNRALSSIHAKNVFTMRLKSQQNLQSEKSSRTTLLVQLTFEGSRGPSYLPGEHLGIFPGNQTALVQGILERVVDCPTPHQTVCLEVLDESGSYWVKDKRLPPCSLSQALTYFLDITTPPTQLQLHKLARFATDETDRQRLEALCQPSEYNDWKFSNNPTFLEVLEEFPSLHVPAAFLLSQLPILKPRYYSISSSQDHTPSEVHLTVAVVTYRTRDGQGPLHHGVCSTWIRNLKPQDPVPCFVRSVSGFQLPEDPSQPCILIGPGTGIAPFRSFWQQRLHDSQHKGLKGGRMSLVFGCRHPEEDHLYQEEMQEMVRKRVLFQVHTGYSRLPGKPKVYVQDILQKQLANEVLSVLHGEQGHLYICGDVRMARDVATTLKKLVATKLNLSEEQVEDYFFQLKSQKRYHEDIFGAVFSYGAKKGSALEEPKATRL
Excerpt: FIG. 6. Interaction between iNOS and SSB-1, -2, and -4 and SSB-2 residues affecting 10 iNOS binding. (A) iNOS interacts preferentially with SSB-2 and SSB-4. 293T cells were transiently transfected with vector alone or cDNA encoding either Flag-tagged SSB-1, SSB-2, SSB-3 or SSB-4. Cells were lysed, and mixed with BMDM lysates from cells induced to express iNOS. Flag-tagged proteins were immunoprecipitated using anti-Flag antibodies (M2-beads) and separated by SDSPAGE. Co-immunoprecipitation of iNOS was detected by Western blot with anti-iNOS antibodies (upper panel). Membranes were stripped and reprobed with rat anti-Flag antibodies (middle panel). Comparative expression of Flag-tagged proteins in 293T lysates is shown by Western blot (lower panel). (B) SSB-2 residues affecting iNOS binding. Residues in the SSB-2 SPRY domain were mutated to Ala or Phe (for Y120) based on SSB-2 structure and sequence conservation. […] Coimmunoprecipitation of iNOS was detected by Western blot with anti-iNOS antibodies.
To investigate whether other SSB family members were able to interact with iNOS, 293T cells were transiently transfected with cDNA expressing SSB-1, SSB-2, SSB-3 or SSB-4 with an N-terminal Flag-epitopetag. […] SSB proteins were immunoprecipitated using anti-Flag antibodies coupled to Sepharose and association of iNOS analysed by Western blot. […]

[2] = biological target: T1, full-length iNOS protein (endogenous, …); test: anti-SSB-2 immunoprecipitation from BMDM, anti-iNOS Western blot (FIG. 5B)
Method: FIG. 5. SSB-2 interacts with endogenous full-length iNOS protein. (A) SSB-2 interacts with full-length iNOS and this requires tyrosine 120 in the SPRY domain peptide-binding surface. Bone marrow-derived macrophages (BMDM) from C57BL/6 mice were incubated with 20 ng/ml IFNγ and 1 μg/ml LPS for 16 h, lysed and incubated with NHS-sepharose beads coupled with recombinant SSB-2 or SSB-2-Y120A proteins, or with uncoupled NHS-sepharose beads (CON), for 3 h at 4° C. Associated proteins were then separated by SDS-PAGE and transferred to PVDF membrane. iNOS was detected by Western blot with specific anti-iNOS antibodies (upper panel). Equivalent amounts of SSB-2 and SSB-2-Y120A were confirmed by reprobe with anti-SSB-2 antibodies (lower panel). (B) Interaction between endogenous iNOS and SSB-2 proteins. Bone marrow-derived macrophages from SSB-2-deficient mice (Ssb-2^{-/-}) or wild-type littermate controls (Ssb-2^{+/+}) were incubated with (+) or without (−) 20 ng/ml IFNγ and 20 ng/ml LPS for 16 h, lysed and endogenous SSB-2 proteins immunoprecipitated using rabbit anti-SSB-2 antibody coupled to NHS-Sepharose. Immunoprecipitates were separated by SDS-PAGE and associated iNOS protein detected by Western blot with specific antibodies (upper panel). […]

[3] = biological target: T2, SSB-2ΔSB (recombinant murine SSB-2 SPRY domain, residues 12-224) (mouse, UniProt O88838 12-224); test: ITC, 25 C, peptide injected into SSB-2ΔSB
T2 construct: 226 residues in total; expressed as GST fusion in E. coli, GST cleaved off with thrombin; 15N-labelled for NMR; coupled to NHS-Sepharose for pull-downs; also called SPSB2
T2 sequence: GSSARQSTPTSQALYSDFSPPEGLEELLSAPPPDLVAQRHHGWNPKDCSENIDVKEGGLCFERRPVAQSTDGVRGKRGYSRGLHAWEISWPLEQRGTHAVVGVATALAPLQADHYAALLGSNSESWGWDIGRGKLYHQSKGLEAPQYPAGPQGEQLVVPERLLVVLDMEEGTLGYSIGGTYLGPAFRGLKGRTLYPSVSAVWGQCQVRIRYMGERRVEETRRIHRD
Method: (§1) FIG. 3. Typical ITC raw data and titration curves for SSB-2 and iNOS peptide interactions. Titration curves were fitted using the “One Set of Sites” model in MicroCal Origin.
(§2) Wild-type and mutant iNOS peptides (Table 2), corresponding to Lys19-Thr31 of mouse iNOS, were synthesized by GL Biochem (Shanghai) Ltd. These peptides were N-terminal acetylated and C-terminal amidated. All ITC measurements were carried out at 25° C. using a Microcal omega VP-ITC (Microcal Inc., Northampton, Mass.). SSB-2ΔSB was dialysed against buffer (100 mM TrisHCl, 150 mM NaCl, pH 8.0), and wild-type and mutant iNOS N-terminal peptides were prepared in the same buffer from 5 mM stocks. Solutions of 5 to 10 μM SSB-2ΔSB in the cell were titrated by injection of a total of 290 μL of 50-200 μM of iNOS peptides. Data analysis was performed using the evaluation software, MicroCal Origin version 5.0. All curves were fitted using the nonlinear least-squares fitter and the “One Set of Sites” model.

[4] = biological target: T3, Y120A-SSB-2ΔSB (murine SSB-2 residues 12-224 with tyrosine 120 mutated to alanine) (mouse, UniProt O88838 12-224); test: ITC, 25 C, wild-type peptide with Y120A-SSB-2ΔSB
T3 construct: also called SSB-2-Y120A
T3 chain: T2 sequence with Y115A
Method: as §1, §2

[5] = biological target: T3, Y120A-SSB-2ΔSB (murine SSB-2 residues …); test: ITC
Method: as §2
(§3) Mutation of Glu21 had no effect on SSB-2:iNOS peptide binding. […] Binding of an SSB-2-SPRY domain in which tyrosine 120 had. been mutated to alanine (Y120A-SSB-2ΔSB) was assessed by ITC.

[6] = biological target: T2, SSB-2ΔSB (recombinant murine SSB-2 SPRY …); test: ITC
Method: as §2, §3

[7] = biological target: T1, full-length iNOS protein (endogenous, …); test: anti-Flag co-immunoprecipitation, anti-iNOS Western blot
Excerpt: FIG. 6. Interaction between iNOS and SSB-1, -2, and -4 and SSB-2 residues affecting 10 iNOS binding. (A) iNOS interacts preferentially with SSB-2 and SSB-4. 293T cells were transiently transfected with vector alone or cDNA encoding either Flag-tagged SSB-1, SSB-2, SSB-3 or SSB-4. Cells were lysed, and mixed with BMDM lysates from cells induced to express iNOS. Flag-tagged proteins were immunoprecipitated using anti-Flag antibodies (M2-beads) and separated by SDSPAGE. Co-immunoprecipitation of iNOS was detected by Western blot with anti-iNOS antibodies (upper panel). Membranes were stripped and reprobed with rat anti-Flag antibodies (middle panel). Comparative expression of Flag-tagged proteins in 293T lysates is shown by Western blot (lower panel). (B) SSB-2 residues affecting iNOS binding. Residues in the SSB-2 SPRY domain were mutated to Ala or Phe (for Y120) based on SSB-2 structure and sequence conservation. 293T cells 20 were transiently transfected with cDNA encoding Flag-tagged wild-type or mutant SSB-2. Cells were lysed, and mixed with BMDM lysates from cells induced to express iNOS. Flag-tagged proteins were immunoprecipitated using anti-Flag antibodies and separated by SDS-PAGE. Coimmunoprecipitation of iNOS was detected by Western blot with anti-iNOS antibodies.

B1: Flag-tagged SSB-3 (murine, expressed in 293T cells) (other, mouse)
chain: DYKDDDDKMARRTRSSRAWHFVLSAARRDTDARAVALAGSSNWGYDSDGQHSDSDSDPEYSSLPPSIPSAVPVTGESFCDCEGQNEATFCNSLHTAHRGKDCRCGEEDEDFDWVWDDLNKSSATLLSCDNRKVSFHMEYSCGTAAIRGTKELGDGQHFWEIKMTSPVYGTDMMVGIGTSDVDLDKYHHTFCSLLGRDEDSWGLSYTGLLHHKGDKTSFSSRFGQGSIIGVHLDTWHGTLTFFKNRKCIGVAATRLQNRRFYPMVCSTAAKSSMKVIRSCASSTSLQYLCCYRLRQLRPNSGDTLEGLPLPPGLKQVLHNKLGWVLSMNCNHWKSPVPPPGTATPGAESLETRPCQRKRCRRS
notes: also called SPSB3
- binding result [1]: no binding

B2: endogenous SSB-2 protein (mouse bone marrow-derived macrophages) (other)
chain: MGQTALARGSSSTPTSQALYSDFSPPEGLEELLSAPPPDLVAQRHHGWNPKDCSENIDVKEGGLCFERRPVAQSTDGVRGKRGYSRGLHAWEISWPLEQRGTHAVVGVATALAPLQADHYAALLGSNSESWGWDIGRGKLYHQSKGLEAPQYPAGPQGEQLVVPERLLVVLDMEEGTLGYSIGGTYLGPAFRGLKGRTLYPSVSAVWGQCQVRIRYMGERRVEEPQSLLHLSRLCVRHALGDTRLGQISTLPLPPAMKRYLLYK
notes: Immunoprecipitated with rabbit anti-SSB-2 antibody coupled to NHS-Sepharose; also called SPSB2
- binding result [2]: binds

B3: iNOS N-terminal peptide I, wild-type, Ac-KEEKDINNNVKKT-NH2 (peptide)
peptide: Ac-KEEKDINNNVKKT-NH2
notes: Synthetic peptide (GL Biochem); also called wild-type iNOS peptide; iNOS peptide
- Kd [3]: 13.3 nM
- Kd [4]: 76.3 µM
- fold reduced affinity against SSB-2ΔSB [5]: ~5000 fold

Binder: Ac-KEEKDINNNAKKT-NH2 [iNOS N-terminal peptide XII, Ac-KEEKDINNNAKKT-NH2]
- Kd [3]: 56.8 nM
- fold lower binding affinity than the wild-type peptide [6]: 2 to 4 fold

Binder: Ac-KEEKDINNNVKAT-NH2 [iNOS N-terminal peptide XIII, Ac-KEEKDINNNVKAT-NH2]
- Kd [3]: 29.8 nM
- fold lower binding affinity than the wild-type peptide [6]: 2 fold

Binder: Ac-KEEADINNNAKAT-NH2 [iNOS N-terminal peptide XV, Ac-KEEADINNNAKAT-NH2]
- Kd [3]: 311 nM
- fold decrease of binding affinity against the wild-type peptide [6]: ~24 fold

B4: Flag-tagged SSB-2 mutant Y120 to phenylalanine (other)
chain: DYKDDDDKMGQTALARGSSSTPTSQALYSDFSPPEGLEELLSAPPPDLVAQRHHGWNPKDCSENIDVKEGGLCFERRPVAQSTDGVRGKRGYSRGLHAWEISWPLEQRGTHAVVGVATALAPLQADHFAALLGSNSESWGWDIGRGKLYHQSKGLEAPQYPAGPQGEQLVVPERLLVVLDMEEGTLGYSIGGTYLGPAFRGLKGRTLYPSVSAVWGQCQVRIRYMGERRVEEPQSLLHLSRLCVRHALGDTRLGQISTLPLPPAMKRYLLYK
- binding result [7]: no binding
